*: point of attachment. Biotin = O=C1N[C@H]2[C@H](CS[C@H]2CCCCC(=O)*)N1; linker = not defined here
T1: Biotin-linker-KQPADGNPDPNANPNV-NH2 (Junc) (Plasmodium falciparum, reading uncertain; also: biotin-linker structure not given here, printed as Biotin-linker-KQPADGNPDPNANPNV-NH2 (Junc))
T1 construct: junctional region of the Plasmodium falciparum circumsporozoite protein (PfCSP), end of the N-terminal domain and first repeats; numbers count on: the peptide (K1-V16); The linker between biotin and peptide is not described; also called junctional peptide; source: synthetic peptide, bought: Innopep Inc
T1 chain: {Biotin-linker}-KQPADGNPDPNANPNV-NH2

T2: Biotin-linker-NPNANPNANPNANPNA-NH2 (NPNA)4 (Plasmodium falciparum, reading uncertain; also: biotin-linker structure not given here, printed as Biotin-linker-NPNANPNANPNANPNA-NH2 (NPNA)4)
T2 construct: four NPNA repeats of the central NANP repeat region of the Plasmodium falciparum circumsporozoite protein (PfCSP); The linker between biotin and peptide is not described; also called NANP peptide; called (NPNA)3 in the results on BLI; source: synthetic peptide, bought: Innopep Inc
T2 chain: {Biotin-linker}-NPNANPNANPNANPNA-NH2

T3: Biotin-linker-KQPADGNPDPNANPNV-NH2 (Junc) (Plasmodium falciparum, reading uncertain; also: biotin-linker structure not given here, printed as Biotin-linker-KQPADGNPDPNANPNV-NH2 (Junc))
T3 construct: junctional region between the N-terminal domain and the central repeats of Plasmodium falciparum circumsporozoite protein (PfCSP); also called junctional peptide; source: synthetic peptide, ordered from Innopep Inc
T3 chain: {Biotin-linker}-KQPADGNPDPNANPNV-NH2

T4: Biotin-linker-NPNANPNANPNANPNA-NH2 (NPNA)4 (Plasmodium falciparum, reading uncertain; also: biotin-linker structure not given here, printed as Biotin-linker-NPNANPNANPNANPNA-NH2 (NPNA)4)
T4 construct: four NPNA repeats of the central repeat region of Plasmodium falciparum circumsporozoite protein (PfCSP); also called NANP peptide; source: synthetic peptide, ordered from Innopep Inc
T4 chain: {Biotin-linker}-NPNANPNANPNANPNA-NH2

T5: Ac-KQPADGNPDPNANP-NH2 (Junc) (Plasmodium falciparum 3D7)
T5 construct: junctional region of the Plasmodium falciparum circumsporozoite protein (PfCSP); numbers count on: the peptide (K1-P14); also called junctional peptide for crystallography; source: synthetic peptide, bought: Innopep Inc., 98% purity
T5 chain: Ac-KQPADGNPDPNANP-NH2

T6: Ac-NPNANPNANPNA-NH2 [(NPNA)3] (Plasmodium falciparum 3D7)
T6 construct: three NPNA repeats of the central NANP repeat region of the Plasmodium falciparum circumsporozoite protein (PfCSP); numbers count on: the peptide (N1-A12); also called (NPNA)3 peptide; source: synthetic peptide, bought: Innopep Inc., 98% purity
T6 chain: Ac-NPNANPNANPNA-NH2

B1: Fab317 (Fab, V domains shown)
VH: QMQLVESGGGVVQPGRSLRLSCTASGFTFSTYAMHWVRQSPGQGLQWVAVISYHSTNKYYEDSVRGRFTISRDNSKNTLYLQMNSLRAEDTAVYYCARDGYSSSFFDFWGQGTLVTVSS
VL: DIQMTQSPSTLSASVGDRVAITCRASQSISRWLAWYQQQPGKAPKLLMSGASVLESGVPSRFSGSGSGTEFTLTISSLQPDDFATYYCQHYNSYFVTFGQGTKVEIK
notes: Fab heavy chain; in the cited structure of Fab317, PDB 6AXL; Fab light chain; NANP-only antibody used for comparison; source: purified
B2: Fab317 (Fab, V domains shown)
VH: B1 VH
VL: B1 VL
notes: heavy chain of Fab317 in the cited crystal structure PDB 6AXL; light chain of Fab317 in the cited crystal structure PDB 6AXL; also called mAb317 (as IgG)
B3: Fab668 (Fab, V domains shown)
VH: QVQLVQSGAEVKKPGASVKVSCKASGFTFTDYAMHWVRQAPGQRLEWMGWINAGNGYTKYSQKFQDRLTITRDTFASTVYMELSSLRSEDTTVYYCARDGFCPSNTCSGYYGMDVWGQGTTVTVSS
VL: QSALTQPASVSGSPGQSITISCTGTSSDVGSYNYVSWYQQHPGKAPKLMIYDVNTRPSGVSIRFSASKSGNTASLTVSGLQAEDEAVYYCSSYAGSSTWVFGGGTKLTVL
notes: Fab heavy chain; germline VH1-3*01; CDR H3 of 17 residues with a disulfide between Cys98 and Cys100C; lambda light chain; germline Vλ2-23*02; source: purified
B4: Fab668 (Fab, V domains shown)
VH: B3 VH
VL: B3 VL
notes: Germline genes VH1-3*01 and Vlambda2-23*02; CDR H3 of 17 residues; also called mAb668 (as IgG)
B5: Fab667 (Fab, V domains shown)
VH: QVQLVQSGAEVKKPGASVKVSCRASGYTFTNYAMHWVRQAPGQRLEWMGWINAGNGYTKYSQKFQDRVTITRDTSATTAYMELSSLRSEDTAMYYCARDSFYDILSGPVYHYYGMDVWGQGTTVTVSS
VL: QSALTQPDSVSGSPGQSITISCTGTSNDVGIYNHVSWYQQHPGKAPKLMIYDVNKRPSGISNRFSGSKSGDTASLTISGLQAEDEADYYCCSYAGSSAWVFGGGTKLTVL
notes: Fab heavy chain; germline VH1-3*01; CDR H3 of 19 residues; lambda light chain; germline Vλ2-23*02; source: purified
B6: Fab667 (Fab, V domains shown)
VH: B5 VH
VL: B5 VL
notes: Germline genes VH1-3*01 and Vlambda2-23*02; CDR H3 of 19 residues; also called mAb667 (as IgG)

Experiments:
Conditions in all cases: both partners purified
[1] = target: T1, Biotin-linker-KQPADGNPDPNANPNV-NH2 …; assay: BLI; biotinylated peptide captured on streptavidin sensors, dipped into serial dilutions of Fab in Kinetics buffer (Dulbecco's PBS, 0.002% Tween20, 0.01% BSA), 25 °C, Octet Red
[2] = target: T2, Biotin-linker-NPNANPNANPNANPNA-NH2 …; assay: as above
[3] = target: T3, Biotin-linker-KQPADGNPDPNANPNV-NH2 …; assay: BLI; Octet Red; biotinylated peptide (10 ug/mL) captured on streptavidin sensors, dipped into serial dilutions of Fab in Kinetics buffer (Dulbecco's PBS, 0.002% Tween20, 0.01% BSA); 25 C; Fab667-Junc fitted to a biphasic binding model; errors are fitting errors
[4] = target: T4, Biotin-linker-NPNANPNANPNANPNA-NH2 …; assay: as above
[5] = target: T5, Ac-KQPADGNPDPNANP-NH2 (Junc); assay: crystal structure; Fab at 11 mg/mL in TBS with a 5:1 molar ratio of peptide to Fab, crystals grown at 293 K
[6] = target: T6, Ac-NPNANPNANPNA-NH2 [(NPNA)3]; assay: as above

Row | Binder | Kd [2] | koff [4] | kon [4] | Kd [4] | other results
1 | B1 | 0.025 µM |  |  |  | binding result [1]: no binding (tested: 8000 nM)
2 | B2 |  | 0.00146 s⁻¹ | 58400 M⁻¹ s⁻¹ |  | binding result [3]: no binding (tested: 8000 nM)
3 | B3 | 0.056 µM |  |  |  | binding result [5]: binds; Kd [1]: 0.206 µM
4 | B4 |  | 0.00179 s⁻¹ | 32200 M⁻¹ s⁻¹ | 0.0556 µM | koff [3]: 0.00424 s⁻¹; kon [3]: 20600 M⁻¹ s⁻¹
5 | B5 | 0.17 µM |  |  |  | binding result [6]: binds
6 | B6 |  | 0.00429 s⁻¹ | 24400 M⁻¹ s⁻¹ | 0.176 µM | 

Reference: publication PMC7082059 (PLoS Pathogens, 2020)
